In patent publication US6602687B1, “DNA encoding human ciliary neurotrophic factor and method for producing the protein encoded thereby” (Regeneron Pharmaceuticals, Inc., priority 1989, dated 2003):
Where two headings read alike, the source gives them in different places.

How the values were obtained:
[1] = test system: E8 chick ciliary ganglion neurons; test: Survival of dissociated E8 chick ciliary ganglion neurons; format: cell-based; conditions: saturating levels of recombinant human CNTF; 48 hr
Procedure, shortened: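 In one protocol, dissociated E8 chick ciliary ganglion cells (2,000 per well, HEBM with 20% horse serum) were held 24 h at 37 °C, fixed, and surviving neurons counted by phase contrast. In another, trypsinized, pre-plating-enriched neurons on polyornithine-laminin (8,000-10,000 per dish, F14 with 5% horse serum) were scored as percentage process-bearing at 48 h, in triplicate.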

[2] = test system: chick embryonic spinal motorneurons; test: Survival of chick embryonic spinal motorneurons in culture; format: cell-based
Method: Motorneuron columns were dissected under a stereomicroscope from the lumbar part of the spinal cord of chick embryos on the 6th day of embryonic development and stored in cold calcium and magnesium-free Hanks balanced salt solution supplemented with glucose (4 g/l) (HBSS). The tissues were washed with HBSS and treated with 0.03% trypsin in HBSS at 37° C. for 20 min with gentle shaking, rinsed with cold HBSS and triturated mildly in 3 steps of 8-passage agitation in 1 ml of cold 0.1% soybean trypsin inhibitor (Sigma) in HBSS through a fire-polished siliconized Pasteur pipette. Each supernatant cell suspension was filtered through 50 μm-Nylon mesh, pooled and layered onto 4 ml of cold 6.8% metrizamide (Fluka) in HBSS-25 mM HEPES (pH7.4) in a 12 ml-siliconized conical glass tube. The tube was centrifuged at 400 g for 15 min at 4° C. and the intermediate layer (0.5 ml) was collected into another siliconized tube containing 6.5 ml of cold culture medium (a mixture of glucose (4 g/l)-supplemented Leibovitz's L-15 medium (Gibco), 0.15 M sodium bicarbonate, heat-inactivated and filtered horse serum and penicillin G (10^5 units/ml) at the ratio of 75:15:10:0.1, freshly prepared and buffered with 5% CO2.) After centrifugation at 100×g for 7 min at 4° C., the supernatant was removed and the cells were gently resuspended in culture medium and plated in Greiner 4-well culture dishes (well diameter, 10 mm; C. A. Greiner und Sohne GmbH, Nurtingen, West Germany) at 1000-2000 cells/well. The dishes had been precoated with poly-DL-ornithine (Sigma, 0.5 mg in 0.15 M sodium borate buffer (pH 8.3) overnight at 4° C., rinsed twice with phosphate-buffered saline (PBS) and subsequently coated with laminin (Gibco; 10 μg/ml in the serum-depleted culture medium) and placed in a 5% CO2-incubator until cell plating (5-6 hrs). Cells were incubated at 37° C. in a humidified 5% CO2- and 95% air-incubator. Samples were added one hr after plating and the culture medium changed after 24 hrs and 72 hrs. The initial cell numbers were counted 3 hrs after plating.
In some experiments motor neurons were retrogradely labeled with a fluorescent dye in vivo before cell preparation (U. Dohrman et al., 1986, Dev. Biol. 118:209-221) to identify the motor neuron cell population. A small hole was made in the shell of eggs which had been incubated for 5 days. Small pieces of rhodamine isothiocyanate crystals (Sigma) were inserted at two or three places into each hind limb thigh and the egg hole was sealed with a cellophane tape. The eggs were incubated for another 24 hrs. Some of the operated embryos were then processed for frozen sections after formaldehyde fixation. […] The other embryos were used for cell preparation using the method described above (18.1.1). After 5 hrs in culture cells were rinsed with warm HBSS, fixed with 4% formaldehyde in PBS at room temperature for 20 min, rinsed with PBS and then mounted in glycerol-PBS (1:1) with glass coverslips. Of the total cells approximately 83% were labeled and identified as motorneurons (FIG. 42.) Most of these labeled motorneurons were large cells and the rest were intermediate-size cells. No small cells were labeled. On the other hand, in experiments in which cells were not labeled with a fluorescent dye about 70% of the total cells were large phase-bright cells with round cell somas, about 20% were intermediate-size neurons (most of them may be motorneurons) and about 10% were small immature neurons (they have neuron-like processes with growth cones but have phase-dark semi-flat cell somas). Non-neuronal cells were either not present or accounted for less than 2%. Taken together, one may conclude that at least 83% of the cells are motorneurons while the remainder consists of non-labeled motorneurons, a small number of unidentified intermediate-size neurons and about 10% immature small neurons. […]

B1: CNTF: ciliary neurotrophic factor; recombinant rat CNTF in Sections 10, 15, 17, purified rat sciatic nerve CNTF in Section 11; see endpoint conditions (protein, UniProt P20294 1-200, looked up)
Ciliary neurotrophic factor: MAFAEQTPLTLHRRDLCSRSIWLARKIRSDLTALMESYVKHQGLNKNINLDSVDGVPVASTDRWSEMTEAERLQENLQAYRTFQGMLTKLLEDQRVHFTPTEGDFHQAIHTLMLQVSAFAYQLEELMVLLEQKIPENEADGMPATVGDGGLFEKKLWGLKVLQELSQWTVRSIHDLRVISSHQMGISALESHYGAKDKQM
[1]
  neurons surviving and elaborating long neurites: 60-70%
[2]; 3 days in culture
  concentration at which the highest survival effect was obtained: 1 ng/mL
[2]; 3 days in culture, CNTF = recombinant rat
  highest survival effect of the concentration-response curve: 64%
[2]; after 3 days in culture, mean ± SEM (n = 4), IGF-I 1 μg/ml, Basic FGF 30 ng/ml, CNTF 1.5 ng/ml
  Motoneuron survival (%): 60.7 ± 5.8%
[2]; after 3 days in culture, one concentration per molecule, Table VI, CNTF rat, rec.
  Survival: + + +
[2]; motorneuron survival, 3 days in culture
  EC50: 0.023 ng/mL
[2]; recombinant rat CNTF, day 3
  EC50 (the concentration required for 50% survival): about 20 pg/ml
[2]; recombinant rat CNTF, day 3, read-out: EC50 (the concentration required for 50% survival)
  EC50: ~1 pM
